Data taken from article PMC4882731 (Journal of the American Chemical Society, 2016).
Blank lines part the entries; values can stand above or below the molecule they belong to.

Legend:
[1] = target: ChlI, C-terminally attached to the surface via His6 tag (Synechocystis) (UniProt P51634); test: single molecule force spectroscopy
ChlD R289A = ChlD R289A (Synechocystis, UniProt P72772 1-676, R289A); test: MST
ChlD wild-type = ChlD wild-type (Synechocystis, UniProt P72772 1-676); test: MST
ChlD R208A = ChlD R208A (Synechocystis, UniProt P72772 1-676, R208A); test: MST
Sequence of ChlD R208A (P72772 whole entry R208A): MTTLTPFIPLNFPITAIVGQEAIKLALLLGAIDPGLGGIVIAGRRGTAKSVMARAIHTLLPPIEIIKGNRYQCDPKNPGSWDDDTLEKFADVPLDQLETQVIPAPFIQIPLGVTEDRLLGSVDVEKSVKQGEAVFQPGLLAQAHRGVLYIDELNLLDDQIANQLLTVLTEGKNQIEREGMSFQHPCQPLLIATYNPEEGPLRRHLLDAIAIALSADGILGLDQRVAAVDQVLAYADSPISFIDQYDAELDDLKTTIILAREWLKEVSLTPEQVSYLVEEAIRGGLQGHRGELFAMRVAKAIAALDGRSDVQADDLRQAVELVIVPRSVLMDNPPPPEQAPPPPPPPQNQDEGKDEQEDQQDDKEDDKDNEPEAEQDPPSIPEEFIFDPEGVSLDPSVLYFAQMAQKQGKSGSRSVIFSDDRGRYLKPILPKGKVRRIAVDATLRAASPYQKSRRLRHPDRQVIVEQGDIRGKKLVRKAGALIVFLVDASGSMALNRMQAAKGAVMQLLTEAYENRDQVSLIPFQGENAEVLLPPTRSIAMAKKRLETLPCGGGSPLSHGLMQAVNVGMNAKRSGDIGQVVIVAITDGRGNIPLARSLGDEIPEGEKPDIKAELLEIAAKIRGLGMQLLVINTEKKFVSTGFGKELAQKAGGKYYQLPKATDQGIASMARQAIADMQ

Sequence of ChlD wild-type (P72772 whole entry): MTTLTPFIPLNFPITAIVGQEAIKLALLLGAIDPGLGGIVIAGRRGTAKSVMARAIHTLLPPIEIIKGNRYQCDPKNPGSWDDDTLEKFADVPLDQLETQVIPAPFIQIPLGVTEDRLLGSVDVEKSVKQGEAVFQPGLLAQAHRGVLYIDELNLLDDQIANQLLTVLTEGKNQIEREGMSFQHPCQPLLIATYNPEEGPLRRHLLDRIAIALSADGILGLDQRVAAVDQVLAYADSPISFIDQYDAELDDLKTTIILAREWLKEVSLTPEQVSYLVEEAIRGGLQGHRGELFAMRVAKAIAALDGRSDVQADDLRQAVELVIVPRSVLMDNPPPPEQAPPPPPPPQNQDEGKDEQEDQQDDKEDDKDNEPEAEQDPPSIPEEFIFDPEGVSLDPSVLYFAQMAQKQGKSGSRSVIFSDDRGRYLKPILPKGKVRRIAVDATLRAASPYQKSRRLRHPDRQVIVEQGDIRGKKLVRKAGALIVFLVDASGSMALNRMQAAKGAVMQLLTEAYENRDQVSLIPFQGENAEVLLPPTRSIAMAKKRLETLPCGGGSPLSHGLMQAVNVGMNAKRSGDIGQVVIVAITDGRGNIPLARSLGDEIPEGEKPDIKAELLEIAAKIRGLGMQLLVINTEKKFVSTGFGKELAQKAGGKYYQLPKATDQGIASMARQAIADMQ
Sequence of ChlD R289A (P72772 whole entry R289A): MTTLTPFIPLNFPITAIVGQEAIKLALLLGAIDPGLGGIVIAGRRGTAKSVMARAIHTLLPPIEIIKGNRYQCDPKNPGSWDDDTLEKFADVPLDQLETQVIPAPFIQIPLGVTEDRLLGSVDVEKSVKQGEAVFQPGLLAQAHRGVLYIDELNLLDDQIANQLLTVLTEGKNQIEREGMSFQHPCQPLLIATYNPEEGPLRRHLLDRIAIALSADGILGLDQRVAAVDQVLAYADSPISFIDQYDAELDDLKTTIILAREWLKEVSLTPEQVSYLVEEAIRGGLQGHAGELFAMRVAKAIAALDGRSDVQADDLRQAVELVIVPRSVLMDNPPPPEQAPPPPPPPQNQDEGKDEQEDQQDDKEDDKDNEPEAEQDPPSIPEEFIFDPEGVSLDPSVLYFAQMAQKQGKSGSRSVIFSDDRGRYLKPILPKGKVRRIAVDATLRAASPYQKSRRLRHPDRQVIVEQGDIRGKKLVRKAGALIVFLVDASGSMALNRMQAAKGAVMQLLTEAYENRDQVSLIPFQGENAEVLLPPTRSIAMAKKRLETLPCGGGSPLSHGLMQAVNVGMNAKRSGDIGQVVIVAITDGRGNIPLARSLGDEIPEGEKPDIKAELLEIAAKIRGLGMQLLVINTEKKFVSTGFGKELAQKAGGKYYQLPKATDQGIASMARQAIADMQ

- interaction probability [1]: 30.5%
- modal interaction force [1]: 108 pN
- rupture force [1]: 109 pN
Molecule: ChlD tagged at the C-terminus with a His6 sequence (from UniProt P72772 1-676) (natural protein)

- Kd (ChlD R289A): 2540 ± 219 nM
- Kd (ChlD wild-type): 7.6 ± 0.8 nM
- Kd (ChlD R208A): 328 ± 67.7 nM
B1: ChlI C244S Alexa Fluor 488 (natural protein, Synechocystis, UniProt P51634 1-357, looked up)
chain: MTATLAAPSKTRRVVFPFTAIVGQDEMKLALLLNVIDPKIGGVMIMGDRGTGKSTTIRALADLLPEIEVVANDPFNSSPSDPEMMSEEVRIRVDSQEPLSIVKKKVTMVDLPLGATEDRVCGTIDIEKALSEGVKAFEPGLLAKANRGILYVDEVNLLDDHLVDVLLDSAAGGWNTVEREGISIRHPARFVLVGSGNPEEGELRPQLLDRFGMHAEIRTVREPELRVKIVEQRTEFDQNPHPFSDQYQTEQEALQAKIVNAQNLLPQVTIDYDYRVKVSEVCAELDVDGLRGDIVTNRAAKALAAFEGRTEVTVDDISRVIVLCLRHRLRKDPLESIDSGSKVEKVFKRVFGVVDEA
modifications: Alexa Fluor 488 C5 maleimide label (labelled residue not stated)
